Reference: publication PMC6054393, “Light induces oxidative damage and protein stability in the fungal photoreceptor Vivid” (PLoS ONE, 2018)
Blank lines part the entries; values can stand above or below the molecule they belong to.

Legend:
[1] = molecular target: Vivid (VVD) truncated at the N-terminus by 36 residues, with an N-terminal 6xHis tag (Neurospora crassa) (UniProt Q9C3Y6)
[2] = molecular target: the molecule itself; assay: SDS-PAGE and Western blot of the aggregated pellet; purified VVD36 given a 5-min blue-light pulse, kept 24 h at 25°C in standard buffer (10% glycerol, 50 mM HEPES, 150 mM NaCl, 20 mM imidazole, pH 8), centrifuged; pellet run on SDS-PAGE and blotted against the 6xHis tag; with DTT present oligomer formation was limited

photoadduct mean lifetime of VVD with A. niger catalase at 2.34 uM (optical absorbance) [1]: 1100 s
Molecule: catalase from Aspergillus niger (from UniProt P55303 1-730) (enzyme)

B1: Vivid (VVD) truncated at the N-terminus by 36 residues, with an N-terminal 6xHis tag (domain or fragment, Neurospora crassa, UniProt Q9C3Y6 37-186, looked up)
chain: HTLYAPGGYDIMGYLIQIMNRPNPQVELGPVDTSCALILCDLKQKDTPIVYASEAFLYMTGYSNAEVLGRNCRFLQSPDGMVKPKSTRKYVDSNTINTMRKAIDRNAEVQVEVVNFKKNGQRFVNFLTMIPVRDETGEYRYSMGFQCETE
notes: Vivid (VVD), LOV photoreceptor of Neurospora crassa, wild type, first 36 amino acids deleted (VVD36); The plasmid came from B. R. Crane; The sample carries some self-oxidative damage (oxidised D82, Y87, F92, F159, N161 found in the aggregated pellet); also called VVD36; dark-VVD; not shown: His6, N-terminal, kept
binding result [2]: binds
